From patent US20120225079A1

Target: cleaved human IgG (human IgG cleaved with the endopeptidases IdeE and IdeE2) (human)
Test: cell-based or functional assay

Substance “recombinant mature EndoSe of Streptococcus equi subsp. equi (lacking the N-terminal signal sequence) (enzyme)” has a lowest EndoSe concentration at which activity was observed (SDS-PAGE) of 2.6 µg/mL.
